Measurements reported in patent publication US11447754B2, “In vitro methods of chemical conversion using non-stereospecific glutathione lyases” (WISCONSIN ALUMNI RESEARCH FOUNDATION, priority 2017, dated 2022).
Substitutions are numbered along the chain they refer to. Names and notes keep the numbering of the source.

How the values were obtained:
[1] = substrate: COc1cc(C(=O)[C@@H](CO)Oc2ccccc2OC)ccc1O; assay: Kinetics of the enzymatic cleavage of β(R)-MPHPV by BaeA (2:S14A/3:S15A); format: biochemical, Novosphingobium aromaticivorans; conditions: other: β(R)-MPHPV into GS-HPV, 24 nM dimeric enzyme, 5 mM GSH, pH 8.0, 25° C.
Description: To generate mutant […], pVP302K/2873-H2872(S14A) was amplified by kinase phosphorylated primers “Saro2873-S15A_R” and “Saro2873-S15A_F”. The linear fragment was circularized using T4 DNA ligase to generate plasmid pVP302K/2873(S15A)-H2872(S14A).
(§1) Expression and purification of recombinant enzymes. Recombinant proteins were expressed using the plasmids described above in E. coli B834 containing plasmid pRARE2 (Novagen) grown for ˜25 hours at 25° C. in ZYM-5052 Autoinduction Medium containing kanamycin and chloramphenicol. Recombinant proteins were purified using a Ni^2+-NTA column as described in Example 1 above, except using gravity-flow columns instead of an FPLC system. After removal of His8-tags using Tev protease, recombinant proteins retained a Ser-Ala-Ile-Ala-Gly-peptide on their N-termini, derived from the linker between the protein and the Tev protease recognition site. Recombinant LigF1 was purified as previously described (Gall and Ralph et al. 2014).
Kinetics of the enzymatic cleavage of β(R)-MPHPV. Various concentrations of racemic MPHPV (equal amounts of the β(S)- and β(R)-stereoisomers) were combined with 5 mM GSH in RB. At time zero, 100 μL of a given enzyme in RB+5 mM GSH was combined with 1000 μL of the racemic MPHPV/GSH sample at 25° C. (both samples were equilibrated to 25° C. before mixing). Final concentrations of β(R)-MPHPV in each reaction were 0.0045, 0.010, 0.017, 0.068, or 0.13 mM. […] At specified time points, 200 μL of a reaction was removed and combined with 40 μL of 1 M HCl (Acros Organics) to stop the reaction before HPLC analysis to quantify GS-HPV formed. […]
(§2) HPLC analysis. Analysis and quantification of aromatic compounds were performed using an Ultra AQ C18 5 μm column (Restek) attached to a System Gold HPLC (Beckman Coulter) with running buffers and methods described in Example 1. The eluent was analyzed for light absorbance between 191 and 600 nm, and absorbances at 280 nm were used for quantification of aromatic metabolites by comparing peak areas to those of standards.

[2] = substrate: COc1cc(C(=O)[C@@H](CO)Oc2ccccc2OC)ccc1O; assay: Kinetics of the enzymatic cleavage of β(R)-MPHPV by BaeA (3:N14A); format: biochemical, Novosphingobium aromaticivorans; conditions: other: β(R)-MPHPV into GS-HPV, 98 nM dimeric enzyme, 5 mM GSH, pH 8.0, 25° C.
Description: To generate mutant 2:S14A, pVP302K/2873-H2872 was amplified by kinase phosphorylated primers “Saro2872-S14A_R” and “Saro2872-S14A_F”. To generate mutant 3:S15A, pVP302K/H2873-2872 was amplified by kinase phosphorylated primers “Saro2873-S15A_R” and “Saro2873-S15A_F”. To generate mutant 3:N14A, pVP302K/2873-H2872 was amplified by kinase phosphorylated primers “Saro2873-S15A_R” and “Saro2873-N14A_F”. These linear fragments were separately circularized using T4 DNA ligase to generate plasmids pVP302K/2873-H2872(S14A), pVP302K/H2873(S15A)-2872, and pVP302K/2873(N14A)-H2872, respectively.
as §1
Kinetics of the enzymatic cleavage of β(R)-MPHPV. Various concentrations of racemic MPHPV (equal amounts of the β(S)- and β(R)-stereoisomers) were combined with 5 mM GSH in RB. […] At specified time points, 200 μL of a reaction was removed and combined with 40 μL of 1 M HCl (Acros Organics) to stop the reaction before HPLC analysis to quantify GS-HPV formed. […]
as §2

[3] = Kinetics of GS-HPV cleavage, comparisons between enzymes over both stereoisomers; format: biochemical
Description: (§3) Kinetics analysis of GS-HPV cleavage. The Reaction Buffer (RB) consisted of 25 mM Tris-HCl (pH 8.5) and 25 mM NaCl. The β(R)- and β(S)-stereoisomers of GS-HPV were separately generated by incubating racemic MPHPV (0.46 mM) in RB with 5 mM reduced glutathione (GSH) and either 38 μg/mL LigF1 or 36 μg/mL LigE, respectively, for several h. This sample, containing a single GS-HPV stereoisomer, guaiacol, and the unreacted MPHPV stereoisomer, was diluted with RB to achieve the desired concentration of GS-HPV for the time course reaction (0.005, 0.011, 0.022, 0.096, or 0.193 mM). An additional 5 mM GSH (dissolved in RB) was added prior to initiation of each time course. At time zero, 100 μL of the indicated enzyme sample (resuspended in RB) was combined with 1800 μL of the diluted GS-HPV reaction mixture to achieve final concentrations of 8 nM NaGSTNu, 195 nM ecYghU, 195 nM ecYfcG, or 47 nM (for β(R)-GS-HPV reactions) or 18 nM (for β(S)-GS-HPV reactions) SYK6GSTNu. Assays were performed at 25° C., and at specified time points, 300 μL of the reaction was removed and combined with 100 μL 1 M HCl (Acros Organics; Geel, Belgium) to stop the reaction before HPLC analysis to quantify HPV formed.
(§4) HPLC analysis. After extracellular aromatics were identified using LC-MS, routine analysis and quantification of aromatics were performed using an Ultra AQ C18 5 μm column (Restek, Bellefonte, Pa.) attached to a System Gold HPLC (Beckman Coulter, Brea, Calif.) with running buffers and chromatography conditions described in FIG. 14. The eluent was analyzed for light absorbance between 191 and 600 nm, and absorbances at 280 nm were used for quantification of aromatic metabolites by comparing peak areas to those of standards (retention times of measured metabolites are shown in FIG. 15).

[4] = substrate: COc1cc(C(=O)[C@@H](CO)SC[C@H](NC(=O)CC[C@H](N)C(=O)O)C(=O)NCC(=O)O)ccc1O; assay: Kinetics of GS-HPV cleavage into HPV by ecYghU; format: biochemical, Escherichia coli DH5α; conditions: other: GS-HPV into HPV, 195 nM enzyme, GSH, pH 8.5, 25° C.
Description: (§5) Enzyme purifications. Genes Saro_2595, E. coli yghU, E. coli yfcG, and SLG_04120 from Sphingobium sp. SYK-6 (codon-optimized for expression in E. coli) were individually cloned into plasmid pVP302K (Gall and Ralph et al. 2014) so that transcripts from the plasmids would be translated into proteins containing a His8-tag connected to the N-terminus via a tobacco etch virus (TEV) protease recognition site. Recombinant proteins were expressed in E. coli B834 (Wood 1966, Doherty et al. 1995) containing plasmid pRARE2 (Novagen, Madison, Wis.) grown for ˜24 h at 27° C. in ZYM-5052 Autoinduction Medium (Studier 2005) containing kanamycin and chloramphenicol. Recombinant proteins were purified essentially as described previously (Gall and Kim et al. 2014); see below for modifications to the procedure. After removal of His8-tags using TEV protease, recombinant proteins retained a Ser-Ala-Ile-Ala-Gly-peptide on their N-termini, derived from the linker between the protein and the TEV protease recognition site. Recombinant LigE and LigF1 from N. aromaticivorans were purified as previously described (Gall and Ralph et al. 2014).
as §3, §4

[5] = substrate: COc1cc(C(=O)[C@H](CO)SC[C@H](NC(=O)CC[C@H](N)C(=O)O)C(=O)NCC(=O)O)ccc1O; assay: Kinetics of GS-HPV cleavage into HPV by ecYghU; format: biochemical, Escherichia coli DH5α; conditions: other: GS-HPV into HPV, 195 nM enzyme, GSH, pH 8.5, 25° C.
Description: as §5, §3, §4

B1: Novosphingobium aromaticivorans BaeA (Saro_2872/Saro_2873 heterodimer, SEQ ID NO:40/SEQ ID NO:42) variant 2:S14A/3:S15A (Ser14 of Saro_2872 and Ser15 of … (protein)
chain 1: MSALLYHGEPNGAALTVLAALAETGLDIECRRIDLLAGERHSLPGIVDPVALDLSIEGEGPVLVIDGEAMTESVFLAQYLDEAAGGVGLQPTDAYARWEMMMWCRQITERLSPAAALLGNLATSQSAIAAIPAEDFAILAARIVSDDLRERWQALNDDAVNAAQVADSETKVAAAVDRCEKQLGDGREWLMGTFSIADLVTYSWLAGMEPLRPAAFADAPLVKAWLARTAARPCVQAALARATISEPLRAWAPGPEINRWG
chain 2: MDEVSLYHWEPNANAGKPMLALMEKGVPFSSHYIDMLQFDQHKPEYLAINPQGTIPAMTHNGQVLTESTAIMEYVNDRFDGPDLMPADAQDRWRVRWWMKFMDQWLGPSFSMIGWSVFVGPMVRQRDPAELAAAIDRIPLPERRTAWRKAINGDFSESEMAESRRRVGLGIAKLEEELGKRPYVGSNQYSLADINIFNSTYSLPISQPDLAGKDRTPNIMRWLKRVYTREAVKKTWAMGKTDLAHRYGLIMAEIEG
notes: His8 tag removed by TEV
Km [1]: 120 ± 30 µM
kcat [1]: 2.8 ± 0.5 s⁻¹
kcat/Km [1]: 23000 ± 8000 M⁻¹ s⁻¹

B2: Novosphingobium aromaticivorans BaeA (Saro_2872/Saro_2873 heterodimer, SEQ ID NO:40/SEQ ID NO:42) variant 3:N14A (Asn14 of Saro_2873 to Ala) (Novosphingobium … (protein)
chain 1: B1 chain 1 with A14S
chain 2: B1 chain 2 with N14A, A15S
notes: His8 tag on Saro_2872 removed by TEV
Km [2]: 250 ± 60 µM
kcat [2]: 0.14 ± 0.02 s⁻¹
kcat/Km [2]: 500 ± 200 M⁻¹ s⁻¹

B3: Escherichia coli ecYghU, Nu-class glutathione-S-transferase, wild type, SEQ ID NO:26; recombinant, residues 21-313 of SEQ ID NO:28 (Escherichia coli K-12) (protein)
chain: MTDNTYQPAKVWTWDKSAGGAFANINRPVSGPTHEKTLPVGKHPLQLYSLGTPNGQKVTIMLEELLALGVTGAEYDAWLIRIGDGDQFSSGFVEVNPNSKIPALRDHTHNPPIRVFESGSILLYLAEKFGYFLPQDLAKRTETMNWLFWLQGAAPFLGGGFGHFYHYAPVKIEYAINRFTMEAKRLLDVLDKQLAQHKFVAGDEYTIADMAIWPWFGNVVLGGVYDAAEFLDAGSYKHVQRWAKEVGERPAVKRGRIVNRTNGPLNEQLHERHDASDFETNTEDKRQG
notes: E. coli B834
kcat/KM with GS-HPV, fold lower than those of NaGSTNu [3]: ~100 fold
Km [4]: 28 µM
kcat [4]: 0.43 s⁻¹
kcat/Km [4]: 16000 M⁻¹ s⁻¹
Km [5]: 12 µM
kcat [5]: 0.29 s⁻¹
kcat/Km [5]: 24000 M⁻¹ s⁻¹
